According to patent US20240092919A1 (Ablynx, published 2024):
Where two headings read alike, the source gives them in different places.

T1: Cynomolgus TCR/cynomolgus CD3 complex on CHO-K1 cells (rhesus monkey (constant domains …))
T1 construct: also called CHO-K1 cyTCR/cyCD3
T1 TCR alpha: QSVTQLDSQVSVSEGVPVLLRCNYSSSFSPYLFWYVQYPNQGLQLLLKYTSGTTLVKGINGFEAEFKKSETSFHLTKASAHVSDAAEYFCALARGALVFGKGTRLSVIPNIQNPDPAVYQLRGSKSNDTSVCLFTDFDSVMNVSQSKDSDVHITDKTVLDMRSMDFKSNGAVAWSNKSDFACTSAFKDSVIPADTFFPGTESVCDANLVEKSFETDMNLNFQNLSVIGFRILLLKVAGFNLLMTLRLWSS
T1 TCR beta: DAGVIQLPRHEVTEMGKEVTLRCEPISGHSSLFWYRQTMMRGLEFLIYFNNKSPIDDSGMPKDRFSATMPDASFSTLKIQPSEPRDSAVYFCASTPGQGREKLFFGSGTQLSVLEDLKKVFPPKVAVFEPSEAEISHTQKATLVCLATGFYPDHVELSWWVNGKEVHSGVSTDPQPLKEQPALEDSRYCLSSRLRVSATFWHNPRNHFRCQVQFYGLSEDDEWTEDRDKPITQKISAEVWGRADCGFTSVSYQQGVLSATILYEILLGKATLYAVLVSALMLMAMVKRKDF
T1 chain 3: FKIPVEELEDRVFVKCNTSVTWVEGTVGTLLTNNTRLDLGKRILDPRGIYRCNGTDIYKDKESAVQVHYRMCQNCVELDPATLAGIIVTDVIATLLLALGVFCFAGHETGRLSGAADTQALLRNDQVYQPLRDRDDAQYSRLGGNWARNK
T1 chain 4: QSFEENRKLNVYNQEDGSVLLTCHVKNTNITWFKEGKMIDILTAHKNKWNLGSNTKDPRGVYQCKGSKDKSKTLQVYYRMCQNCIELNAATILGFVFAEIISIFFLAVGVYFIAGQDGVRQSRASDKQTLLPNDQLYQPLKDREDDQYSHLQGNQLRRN
T1 chain 5: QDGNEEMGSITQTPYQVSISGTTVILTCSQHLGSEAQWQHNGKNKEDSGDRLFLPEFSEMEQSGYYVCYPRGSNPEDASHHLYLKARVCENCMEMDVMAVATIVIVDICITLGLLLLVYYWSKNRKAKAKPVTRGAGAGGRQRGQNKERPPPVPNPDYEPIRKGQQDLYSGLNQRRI
T1 chain 6: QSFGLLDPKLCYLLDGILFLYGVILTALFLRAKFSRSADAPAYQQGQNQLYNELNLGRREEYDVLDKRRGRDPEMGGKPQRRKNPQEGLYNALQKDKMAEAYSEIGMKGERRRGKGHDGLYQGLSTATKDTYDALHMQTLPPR

T2: Human T cell receptor on human primary T cells (human, UniProt P01848 1-140; P01850 1-176)
T2 construct: whole, on cells
T2 TCR alpha (looked up): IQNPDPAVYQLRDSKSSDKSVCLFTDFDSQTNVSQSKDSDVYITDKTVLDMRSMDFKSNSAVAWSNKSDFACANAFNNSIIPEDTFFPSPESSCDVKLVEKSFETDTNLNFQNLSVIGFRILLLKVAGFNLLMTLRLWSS
T2 TCR beta (looked up): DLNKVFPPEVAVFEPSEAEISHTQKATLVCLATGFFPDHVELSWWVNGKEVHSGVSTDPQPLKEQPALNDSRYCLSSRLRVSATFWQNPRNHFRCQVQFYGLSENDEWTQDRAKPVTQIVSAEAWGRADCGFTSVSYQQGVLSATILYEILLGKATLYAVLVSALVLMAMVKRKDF

T3: human T cell receptor on human primary T cells (human, UniProt P01848 1-140; P01850 1-176)
T3 construct: whole, on cells
T3 TCR alpha (looked up): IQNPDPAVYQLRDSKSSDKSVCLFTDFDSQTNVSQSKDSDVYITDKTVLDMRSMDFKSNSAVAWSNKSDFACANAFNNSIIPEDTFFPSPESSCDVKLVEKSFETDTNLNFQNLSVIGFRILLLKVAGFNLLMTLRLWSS
T3 TCR beta (looked up): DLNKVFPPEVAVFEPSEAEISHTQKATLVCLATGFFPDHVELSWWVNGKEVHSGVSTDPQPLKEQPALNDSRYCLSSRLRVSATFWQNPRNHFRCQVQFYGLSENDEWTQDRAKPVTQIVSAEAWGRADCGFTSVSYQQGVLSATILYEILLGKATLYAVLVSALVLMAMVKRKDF

T4: Cynomolgus TCR(AEA41865/AEA41866)-zipper protein (cynomolgus monkey)
T4 construct: also called cyTCR-zipper protein; cynoTCR zipper
T4 TCR alpha: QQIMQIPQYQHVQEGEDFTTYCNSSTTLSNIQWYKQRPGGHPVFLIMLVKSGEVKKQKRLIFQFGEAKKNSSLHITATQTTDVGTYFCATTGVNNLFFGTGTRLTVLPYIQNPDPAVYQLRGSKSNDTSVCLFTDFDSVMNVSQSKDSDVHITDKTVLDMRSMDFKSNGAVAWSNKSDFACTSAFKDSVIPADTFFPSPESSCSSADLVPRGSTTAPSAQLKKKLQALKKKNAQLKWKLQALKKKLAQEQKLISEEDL
T4 TCR beta: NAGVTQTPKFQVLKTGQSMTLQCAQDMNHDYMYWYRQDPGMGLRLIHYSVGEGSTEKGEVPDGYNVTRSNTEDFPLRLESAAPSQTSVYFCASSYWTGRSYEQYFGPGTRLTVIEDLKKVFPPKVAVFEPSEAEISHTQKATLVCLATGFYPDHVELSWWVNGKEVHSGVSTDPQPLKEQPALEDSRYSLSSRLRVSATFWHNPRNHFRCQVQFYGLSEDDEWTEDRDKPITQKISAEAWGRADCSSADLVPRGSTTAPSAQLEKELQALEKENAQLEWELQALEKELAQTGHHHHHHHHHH


Experiments:
[1] = target: T1, Cynomolgus TCR/cynomolgus CD3 complex …; test: flow cytometry on CHO-K1 cyTCR/cyCD3 cells; Flag3-His6-tagged ISVD, anti-FLAG M2 + PE goat anti-mouse; MFI (mean PE) [panel CHO-K1 cyTCR/cyCD3]
Protocol: Next, cells were washed 3 times with FACS buffer and incubated with 1 μg/ml ANTI-FLAG® M2 Ab (Sigma, F1804) and washed again. […] Subsequently, cells were resuspended in FACS buffer supplemented with 5 nM TO-PRO®-3 Iodide to distinguish live from dead cells, which are removed during the gating procedure. Cells were analyzed using a FACS Array flow cytometer (BD Biosciences) and Flowing Software. First a P1 population which represented more than 80% of the total cell population was selected based on FSC-SSC distribution. In this gate, 10000 cells were counted during acquisition. From this population the TO-PRO®-3+ cells (dead cells) were excluded and the mean fluorescence intensity (MFI) PE value was calculated.

[2] = target: T2, Human T cell receptor on human primary …; test: flow cytometry on human primary T cells; Flag3-His6-tagged ISVD, anti-FLAG M2 + PE goat anti-mouse; MFI (mean PE)
Protocol: (§1) The ISVD variants were characterized for binding to CHO-K1 huTCR(2XN9)/huCD3 or to human and cynomolgus primary T cells. […] Next, cells were washed 3 times with FACS buffer and incubated with 1 μg/ml ANTI-FLAG® M2 Ab (Sigma, F1804) and washed again. […] Subsequently, cells were resuspended in FACS buffer supplemented with 5 nM TO-PRO®-3 Iodide to distinguish live from dead cells, which are removed during the gating procedure. Cells were analyzed using a FACS Array flow cytometer (BD Biosciences) and Flowing Software. First a P1 population which represented more than 80% of the total cell population was selected based on FSC-SSC distribution. In this gate, 10000 cells were counted during acquisition. From this population the TO-PRO®-3+cells (dead cells) were excluded and the mean fluorescence intensity (MFI) PE value was calculated.

[3] = target: T3, human T cell receptor on human primary …; test: flow cytometry, human primary T cells
Protocol: Dose-dependent binding of the purified monovalent ISVD variants to CHO-K1 huTCR(2XN9)/huCD3 overexpressing cells or human primary T cells was evaluated by flow cytometry. […] Next, cells were washed 3 times with FACS buffer and incubated with 1 μg/ml THE™ His Tag Antibody, mAb, Mouse (Genscript, A00186) and washed again. […] Subsequently, cells were resuspended in FACS buffer supplemented with 5 nM TO-PRO®-3 Iodide to distinguish live from dead cells, which are removed during the gating procedure. Cells were analyzed using a FACS Array flow cytometer (BD Biosciences) and Flowing Software. First a P1 population which represented more than 80% of the total cell population was selected based on FSC-SSC distribution. In this gate, 10000 cells were counted during acquisition. From this population the TO-PRO®-3+ cells (dead cells) were excluded and the mean fluorescence intensity (MFI) PE value was calculated.

[4] = target: T5, Cynomolgus T cell receptor on the HSC-F cynomolgus T cell line (cynomolgus monkey); test: flow cytometry competition with Flag3-His6-tagged anti-TCR ISVD ligand, HSC-F cells
T5 construct: whole, on cells; also called HSC-F cells; HSC-F cyno T cell line (NIBIO JCRB1164)
Protocol: (§2) Subsequently, cells were resuspended in FACS buffer supplemented with 1 μg/ml Propidium Iodide (PI, Sigma, P4170) to distinguish live from dead cells. Cells were analyzed using a FACS Array flow cytometer (BD Biosciences) using Flowing Software. First a P1 population which represented more than 80% of the total cell population was selected based on FSC-SSC distribution. In this gate, 10000 cells were counted during acquisition. From this population the Propidium iodide or TO-PRO©-3 Iodide positive cells (dead cells) were excluded and the median or Mean PE value was calculated.

[5] = target: T2, Human T cell receptor on human primary …; test: flow cytometry competition with Flag3-His6-tagged anti-TCR ISVD ligand, human primary T cells
Protocol: as §2

[6] = target: T4, Cynomolgus …; test: higher koff divided by lower koff, humanTCR zipper vs cynoTCR zipper (SPR)
[7] = target: T4, Cynomolgus …; test: SPR, ProteOn XPR36, 25 C, immobilised TCR-zipper
Description: HuTCR-zipper or cyTCR-zipper protein was immobilized on a GLC sensor chip (between 100-200 RU) via amine coupling chemistry, using EDC/NHS for activation of the carboxyl groups on the chip surface (running buffer: HBS-EP+, pH7.4). […] Processed sensorgrams were fitted with the Langmuir model (1:1 interaction) using ProteOn Manager 3.1.0 (Version 3.1.0.6) software.

[8] = target: T2, Human T cell receptor on human primary …; test: flow cytometry, human primary T cells
Protocol: as §1

[9] = target: T2, Human T cell receptor on human primary …; test: flow cytometry, human primary T cells
Protocol: as §1

Gap in off-rate human vs cyno [6] [fold]	Kd [7] [nM]	EC50 [8] [nM]	other results	Binder
			binding result [1]: no binding (tested: 3e-6 M); binding result [2]: no binding (tested: 3e-6 M)	cAbLys3 (VHH, not shown: small tags and cut ends, also called irrelevant anti-egg lysozyme ISVD) VHH: DVQLQASGGGSVQAGGSLRLSCAASGYTIGPYCMGWFRQAPGKEREGVAAINMGGGITYYADSVKGRFTISQDNAKNTVYLLMNSLEPEDTAIYYCAADSTIYASYYECGHGLSTGGYGYDSWGQGTQVTVSS
			EC50 [3]: 110 nM	T0170056G05 (VHH, also called T01700056G05; parental ISVD) VHH: EVQLVESGGGLVQPGGSLRLSCVASGDVHKINFLGWYRQAPGKEREKVAHISIGDQTDYADSAKGRFTISRDESKNMVYLQMNSLKPEDTAVYFCRAFSRIYPYDYWGQGTLVTVSS
			IC50 [4]: 620 nM; IC50 [5]: 100 nM	T017000679 (VHH) VHH: DVQLVESGGGVVQPGGSLRLSCVASGYVHKINFYGWYRQAPGKEREKVAHISIGDQTDYADSAKGRFTISRDESKNTVYLQMNSLRPEDTALYYCRALSRIWPYDYWGQGTLVTVSS
12.4	220	100		T017000141 (VHH, not shown: small tags and cut ends) VHH: EVQLVESGGGVVQPGGSLRLSCVASGDVHKINFLGWYRQAPGKEREKVAHISIGDQTDYADSAKGRFTISRDESKNMVYLQMNSLRPEDTALYFCRAFSRIYPYDYWGQGTLVTVSS
4.5	6.3	46	EC50 [9]: 45 nM	T017000624 (VHH, not shown: small tags and cut ends) VHH: EVQLVESGGGVVQPGGSLRLSCVASGYVHKINFYGWYRQAPGKEREKVAHISIGDQTDYADSAKGRFTISRDESKNTVYLQMNSLRPEDTALYYCRALSRIWPYDYWGQGTLVTVSS
